Reference: the supplement of paper PMC11246515
± gives the standard deviation of the averaged measurements.

Assay: total protein half-life in vivo (active degradation + dilution); higher = more stable protein
[1] = E. coli NCM3722 delta-clpP delta-lon delta-hslV, growth: N-lim chemostat, doubling time 6 h
[2] = E. coli NCM3722 delta-clpP, growth: N-lim chemostat, doubling time 6 h
[3] = E. coli NCM3722 delta-hslV, growth: N-lim chemostat, doubling time 6 h
[4] = E. coli NCM3722 delta-lon, growth: N-lim chemostat, doubling time 6 h
[5] = E. coli NCM3722 delta-smpB, growth: N-lim chemostat, doubling time 6 h
[6] = wild type E. coli NCM3722, growth: C-lim chemostat, doubling time 3 h
[7] = wild type E. coli NCM3722, growth: C-lim chemostat, doubling time 6 h
[8] = wild type E. coli NCM3722, growth: C-lim chemostat, doubling time 12 h
[9] = wild type E. coli NCM3722, growth: N-lim chemostat, doubling time 6 h
[10] = wild type E. coli NCM3722, growth: N-lim chemostat, doubling time 12 h
[11] = wild type E. coli NCM3722, growth: P-lim chemostat, doubling time 6 h
[12] = wild type E. coli NCM3722, growth: P-lim chemostat, doubling time 12 h

| Sequence | total protein half-life in vivo [1] [h] | total protein half-life in vivo [2] [h] | total protein half-life in vivo [3] [h] | total protein half-life in vivo [4] [h] | total protein half-life in vivo [5] [h] | total protein half-life in vivo [6] [h] | total protein half-life in vivo [7] [h] | total protein half-life in vivo [8] [h] | total protein half-life in vivo [9] [h] | total protein half-life in vivo [10] [h] | total protein half-life in vivo [11] [h] | total protein half-life in vivo [12] [h] |
| --- | --- | --- | --- | --- | --- | --- | --- | --- | --- | --- | --- | --- |
| MNQRNASMTVIGAGSYGTALAITLARNGHEVVLWGHDPEHIATLERDRCNAAFLPDVPFPDTLHLESDLATALAASRNILVVVPSHVFGEVLRQIKPLMRPDARLVWATKGLEAETGRLLQDVAREALGDQIPLAVISGPTFAKELAAGLPTAISLASTDQTFADDLQQLLHCGKSFRVYSNPDFIGVQLGGAVKNVIAIGAGMSDGIGFGANARTALITRGLAEMSRLGAALGADPATFMGMAGLGDLVLTCTDNQSRNRRFGMMLGQGMDVQSAQEKIGQVVEGYRNTKEVRELAHRFGVEMPITEEIYQVLYCGKNAREAALTLLGRARKDERSSH [P0A6S7] | 5.183 ± 0.013 | 5.35 ± 0.8 | 4.8 ± 0.097 | 4.88 ± 0.27 | 4.73 ± 0.34 | 3.3022 ± 0.00023 | 5.8 ± 0.063 | 10.8 ± 1.8 | 4.99 ± 0.28 | 8.16 | 5.73 ± 0.15 | 12.7 ± 2.1 |
| MNQSYGRLVSRAAIAATAMASLLLLIKIFAWWYTGSVSILAALVDSLVDIGASLTNLLVVRYSLQPADDNHSFGHGKAESLAALAQSMFISGSALFLFLTGIQHLISPTPMTDPGVGVIVTIVALICTIILVSFQRWVVRRTQSQAVRADMLHYQSDVMMNGAILLALGLSWYGWHRADALFALGIGIYILYSALRMGYEAVQSLLDRALPDEERQEIIDIVTSWPGVSGAHDLRTRQSGPTRFIQIHLEMEDSLPLVQAHMVADQVEQAILRRFPGSDVIIHQDPCSVVPREGKRSMLS |  |  |  |  |  |  |  | 14.3 | 6.34 |  | 5.52 |  |
| MNQTLLSSFGTPFERVENALAALREGRGVMVLDDEDRENEGDMIFPAETMTVEQMALTIRHGSGIVCLCITEDRRKQLDLPMMVENNTSAYGTGFTVTIEAAEGVTTGVSAADRITTVRAAIADGAKPSDLNRPGHVFPLRAQAGGVLTRGGHTEATIDLMTLAGFKPAGVLCELTNDDGTMARAPECIEFANKHNMALVTIEDLVAYRQAHERKAS [P0A7J0] | 5.39 ± 0.59 | 4.61 ± 0.68 | 1.27 ± 0.23 | 1.22 ± 0.28 | 1.02 ± 0.1 | 1.2 ± 0.25 | 1.2 ± 0.21 | 1.35 ± 0.13 | 1.291 ± 0.0046 | 1.52 ± 0.086 | 0.987 | 1.82 ± 1.1 |
